Biological target: the molecule itself
Experiment: SEC; gel filtration chromatography of purified His-RecN; single peak at a position indicating 308 kDa; column and buffer not told in the methods shown

B1: N-terminally hexahistidine-fused RecN (His-RecN), Escherichia coli (natural protein, E. coli, UniProt P05824 1-553, looked up)
chain: MLAQLTISNFAIVRELEIDFHSGMTVITGETGAGKSIAIDALGLCLGGRAEADMVRTGAARADLCARFSLKDTPAALRWLEENQLEDGHECLLRRVISSDGRSRGFINGTAVPLSQLRELGQLLIQIHGQHAHQLLTKPEHQKFLLDGYANETSLLQEMTARYQLWHQSCRDLAHHQQLSQERAARAELLQYQLKELNEFNPQPGEFEQIDEEYKRLANSGQLLTTSQNALALMADGEDANLQSQLYTAKQLVSELIGMDSKLSGVLDMLEEATIQIAEASDELRHYCDRLDLDPNRLFELEQRISKQISLARKHHVSPEALPQYYQSLLEEQQQLDDQADSQETLALAVTKHHQQALEIARALHQQRQQYAEELAQLITDSMHALSMPHGQFTIDVKFDEHHLGADGADRIEFRVTTNPGQPMQPIAKVASGGELSRIALAIQVITARKMETPALIFDEVDVGISGPTAAVVGKLLRQLGESTQVMCVTHLPQVAGCGHQHYFVSKETDGAMTETHMQSLNKKARLQELARLLGGSEVTRNTLANAKELLAA
notes: RecN, Escherichia coli; a fragment containing the recN gene from the pRecN plasmid cloned into pET15b; Copies: by gel filtration 'a homo-oligomeric complex, most likely a tetramer' (308 kDa); the discussion speaks of multimers larger than tetramers. pET15b may add linker residues between the His tag and RecN (surmised); also called E. coli RecN; source: E. coli BL21 (DE3), pET15b derivative, …
stoichiometry N: ~4

Source: PMC6856136, “Topological DNA-binding of structural maintenance of chromosomes-like RecN promotes DNA double-strand break repair in Escherichia coli” (Communications Biology, 2019)
